# T1: flag-tagged soluble TL3 (amino acids 105-251 of SEQ ID NO:234) (Homo sapiens (Human), UniProt O75888 105-250)
# T1 construct: Heterologous flag-tagged control protein, immobilized in the ELISA; also called flagged tagged TL-3; not shown: Flag tag
# T1 sequence: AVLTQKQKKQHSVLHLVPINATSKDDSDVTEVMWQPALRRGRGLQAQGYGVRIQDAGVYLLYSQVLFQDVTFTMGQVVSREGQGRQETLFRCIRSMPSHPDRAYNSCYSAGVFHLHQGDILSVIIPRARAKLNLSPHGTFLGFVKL
# B1: GMCC118 (scFv)
# scFv: EVQLVQSGGGLVKPGGSLRLSCTASGFSFTNAWMSWVRQAPGKGLEWVGRIKSRNDGGATDYAAPVKGRFTISRDDSKNTLYLQMNSLKTDDTAVYYCTTDNFPLRFLEWLSHPDYWGQGTMVTVSSGGGGSGGGGSGGGGSAQAVLTQPSSVSVSPGQTVTITCSGEKLDNKYISWYQQRPGRSPILVIYQDRKRPSGIPERFSGSNSGNTATLTITGSQPLDEADYYCQAWDSSTAWEFGGGTKLTVLG
# B2: GMCC125 (scFv)
# scFv: EVQLVQSGGGLVKPGGSLRLSCAASGFSFSDYSMHWIRQAPGKGLEWLSHIGTSTSYTNYADSVKGRFTISRDNAKNSFYLQMNSLRVDDTAVYFCARGFGGLRGYFDYWGQGTLVTVSSGGGGSGGGGSGGGGSALSSELTQDPAVSVALGQTVKITCQGDRLRRFYASWYQQKPGQAPLLLIYGKNSRPSGIPDRFSGSTSGATASLTITGAQAEDEADYYCNSRDSSGSLHSVFGTGTKVTVLG
# B3: GMCC114 (scFv)
# scFv: EVQLVESGPEVKKPGSSVKVSCKASGAAAFSSYAISWVRQAPGRGLEWMGGIIPISDTPKYAHKFQGRVTITADESTTTVFMEVSGLRSDDTAVYYCATTTRYGSGTYDYMDVWGQGTMVTVSSGGGGSGGGGSGGGGSALSSELTQDPAVSVALGQTVRITCQGDSLRSYYASWYQQKPGQAPVLVFYGKNKRPSGIPDRFSGSTSGNTASLSITGALADDEADYYCHSRDTSGAQILFGGGTKLTVLG
# B4: GMCC127 (scFv)
# scFv: QVQLVQSGGGVVRPGGSLRLSCAASGFTFDDYGMSWVRQAPGKGLEWVSGINWNGGSTGYADSVKGRFTISRDNAKNSLYLQMNSLRAEDTAVYYCARRRYALDYWGRGTLVTVSSGGGGSGGGGSGGGGSALSSELTQDPAVSVALGQAVRITCQGDSLRTNYASWYQQRPGQAPVLVIRGNNNRPSGIPDRFSGSNSGDTVSLTITGAQAEDEADYYCNSRDTSGYHYVFGTGTKLTVLG
# B5: GMCC124 (scFv)
# scFv: QVTLKESGAEVKKPGASVKVSCKASGYTFTDNALHWVRQAPGQRPEWMAWINTANGNTRYSQKFQGRLTITRDTSASTAFMDLSSLRSEDTAVYYCARQKAYKNYYYYYGMDVWGQGTLVTVSSGGGGSGGGGSGGGGSAQSVVTQPPSVSAAPGQKVTISCSGSSSNIGNNYVSWYQQLPGTAPKLLIYENNKRPSGIPDRFSGSQSGTSATLGISGLQTGDEADYYCGTWDSSLRAGVFGGGTKLTVLG
# B6: GMCC119 (scFv)
# scFv: EVQLVQSGPEVKKPGASVKVSCKASNYTFTTYDISWVRQAPGQGLEWMGWISTYSGNTKYAQKFQGRVTMTRDTSTSAAYMELRNLRSDDTAVYFCARDIRVWRGSGSVHYFDPWGRGTTVTVSSGGGGSGGGGSGGGGSAQSALTQPRSVSGSPGQSVTISCTGTSNDVGGYNFVSWYQQHPGKAPKLMVYNVSKRPSGVPDRFSGSKSGNTASLTISGLQAEDEADYYCSSYAHSYTLVFGGGTKVTVLG
# B7: GMCC129 (scFv)
# scFv: EVQLVETGGGLAQPGGSLRLSCEASGFTFNNYAMSWVRQAPGKGLEWVSGISISGYSTFYTDSVQGRFTISRDNSKNTLYLQMNSLGVDDTAVYYCAKRRGEGGDFDYWGRGTMVTVSSGGGGSGGGGSGGGGSALSSELTQDPAVSVALGQTVRITCQGDSLRGYYASWYQQKAGQAPVLVIYGKNNRPSGIPDRFSGSSSGNTASLTITGAQAEDEADYYCYSRDRSGNHLGMFGGGTKVTVLG
# B8: GMCC108 (scFv)
# scFv: EVQLVQSGAEVKEPGASVTVSCKASGYTFISYHMHWVRQAPGQGLEWMGIINPSGGDTTYAQKFQGRVTMTRDTSTSTVYMELRSLRFEDTARYYCARDLKFYDFRSGKYQDYGMDVWGQGTLVTVSSGGGGSGGGGSGGGGSAQSVLTQPPSLSVAPGQTASITCGGNDIGTKSVHWYQLKPGQAPVLVVYDNRDRPSGIPERFSGSNSGNTATLTISRVEGGDEADYYCQVWDSSIDHSEYVFGTGTKLTVLG
# B9: GMCC107 (scFv)
# scFv: QVQLVQSGAEVKKPGASVKVSCRTSGYTFTDHSMHWVRQAPGQRFEWMGWIGADSGSTQYSRNFQGRLTIGRDTSASTVYMELTSLRSEDTAVYYCARVGGGQGWYSGMDVWGRGTLVTVSSGGGGSGGGGSGGGGSAQAVLTQPSSVSGAPGQRVTISCTGSSSNIGASYDVHWYQQLPGTAPKLLIYNNNNRPSGVPDRFSGSRSGTSASLAITGLQAEDEADYYCHSYDSNLSGDVFGSGTKLTVLG
# B10: GMCC138 (scFv)
# scFv: EVQLVETGPGLVKPSQTLSLTCTVSGGSISSGGYYWSWIRQVPGKGLEWIGYNFYNGSTYFNPSLKSRATISIDTTKNQFSLKLSSVTAADTAVYYCARGNGYRYGRWFDPWGRGTLVTVSSGGGGSGGGGSGGGGSALSYELTQPPSVSVSPGQTARITCSGDALPKQYAYWYQQKPGQAPVLVISKDSERPSGIPERFSGSSSGTTVTLTISGVQAEDEADYYCQSADSSGTYWVFGGGTKVTVLG
# B11: GMCC126 (scFv)
# scFv: QVQLQESGPGLVKPSQTLSLSCAVSGFSVTSGHYWGWIRQSPGKGLEWIGNIYHTGSTRYNPSLESRVSMSVDTSKNQFSLRLTSVTAADTAIYYCARVGRGQHLVRGDFDYWGRGTLVTVSSGGGGSGGGGSGGGGSAQSVLTQPPSISVSPGQTASITCSGDELGHKYASWYQQKPGQSPVVVVYQDNKRPSGIPERFSGSSSGNTATLTISGTQAVDEADYFCQAWDSSAVVFGGGTKLTVLG
# B12: GMCC112 (scFv)
# scFv: QVQLVQSGGGLVQPGGSLRLSCAASGFSFSTYAMSWVRQAPGKGLEWVSGVSDGGDTFYADSVRGRFTLSRDNAKNTLFLQMNSLTAEDTATYYCAKEIARIGVPNFDHWGQGTLVTVSSGGGGSGGGGSGGGGSALETTLTQSPGTLSLSPGDRATLSCRASQSIRNNDVAWYQQKPGQAPRLLIYSASRRATDIPDRFSGSASGTDFTLTISRLEPEDFAMYYCQQYGGSASFGQGTRLEIKR
# B13: GMBC612 (scFv)
# scFv: EVQLVESGGGVVQPGGSLRLSCAASGFSFSSYGMQWVRQAPGKGLEWVAFIRYDGSIKYYADSVKGRFTVSRDNSKNTLYLQMNSLRAEDTAVYYCARGYRIVDYWGQGTLVTVSSGGGGSGGGGSGGGGSDIQMTQSPSTLSPSIGDRVTITCRASEGIYHWLAWYQQKPGKAPKLLIYKASSLASGAPSRFSGSGSGTDFTLTISSLQPDDFATYYCQQYSNYPLTFGGGTKLEIKR
# B14: GMCC110 (scFv)
# scFv: QVQLQESGPGLVKPSQTLSLTCTVSGASISSGGYRWIWIRQHPGQGLEWIGDIHYSGSTQYNPSLKSRVALTLDRSKNQFSLQLSSVTAADTAVYYCARDPRGHTYGYGYYFDYWGKGTLVTVSSGGGGSGGGGSGGGGSALSSELTQDPDVSVALGQTVTITCQGDRLRRYYASWYQQKPGQAPVLVIFRKNNRPSGIPDRFSGSSSGDTASLTITGAQAEDEADYYCNSRDTSGTLSFGGGTQLTVLS
# B15: GMCC131 (scFv)
# scFv: QVQLQESGPGLVKPSETLSLTCSVSGGSIRSHYWSWMRQPPGKGLEWIGYVYYTGSTNYNPSLKSRVTMSVDTSKNQFSLNLSSVTAADTAIYYCARFPYSSGSNPLDYWGRGTLVTVSSGGGGSGGGGSGGGGSAQSVLTQPPSVSAAPGQRVTISCTGSSSNIGARYDVHWYQHLPGTAPKLLIYGDSNRPSGVPDRFSGSKSGTSASLAITGLQPEDEADYYCQSYDSSLSGVVFGGGTKVTVLG
# B16: GMCC142 (scFv)
# scFv: EVQLVQSGAEVKKPGASVTISCKASGYTFTAYYIYWVRQAPGQGLEWMGMSNPNGGYTVYPPNFLGRVTTTPDTSTNTIYMELRSLRSEDTAVYYCARGRGRAPSNAFDFWGRGTLVTVSSGGGGSGGGGSGGGGSALSSELTQDPAVSVALGQTVRITCQGDSLKFYYASWYQQKPGQAPVLVLHGKNNRPSGIPDRFSGSTSRDTASLTITGTQAEDEADYYCNSRDNSDNIVFGTGTKLTVLG
# Target: T1, flag-tagged soluble TL3 (amino acids …)
# Experiment: phage ELISA on immobilized flag-tagged soluble TL3
# Summary of the method: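 Phage displaying scFvs selected against flag-tagged GMAD were screened by ELISA against immobilized flag-tagged soluble TL3 (residues 105-251) as a heterologous flag-tagged counter-target, to check that binding is GMAD-specific.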
row,binding result,Binder
1,no binding,B1
2,no binding,B2
3,no binding,B3
4,no binding,B4
5,no binding,B5
6,no binding,B6
7,no binding,B7
8,no binding,B8
9,no binding,B9
10,no binding,B10
11,no binding,B11
12,no binding,B12
13,no binding,B13
14,no binding,B14
15,no binding,B15
16,no binding,B16

# — patent US20050069542A1 (Human Genome Sciences, published 2005)
